What was measured:
[1] = biological target: biotinylated monomeric hMPV B2 F protein (human metapneumovirus (subgroup B2)); assay: BLI
[2] = biological target: trypsinized trimeric hMPV B2 F (human metapneumovirus (subgroup B2)); assay: SEC

Row | Substance | Kd [1] | stoichiometry N [2]
1 | 101F Fab | 430 nM | –
2 | trypsinized trimeric hMPV B2 F (natural protein) | – | 3
